In patent US20250011388A1 (MONASH UNIVERSITY, published 2025):

B1: human CD80 (hCD80) expressed on CHO cells (ligand, UniProt P33681 35-288, looked up)
chain: VIHVTKEVKEVATLSCGHNVSVEELAQTRIYWQKEKKMVLTMMSGDMNIWPEYKNRTIFDITNNLSIVILALRPSDEGTYECVVLKYEKDAFKREHLAEVTLSVKADFPTPSISDFEIPTSNIRRIICSTSGGFPEPHLSWLENGEELNAINTTVSQDPETELYAVSSKLDFNMTTNHSFMCLIKYGHLRVNQTFNWNTTKQEHFPDNLLPSWAITLISVNGIFVICCLTYCFAPRCRERRRNERLRRESVRPV
notes: whole, on cells; In most assays co-expressed with human PDL1 on the same CHO cell (cis-CD80:PDL1 clones, e.g. clone 12); also called B7-1; cis-CD80:PDL1 cells

Assays:
[1] = biological target: T1, human PDL1 (hPDL1) expressed on CHO cells (human, UniProt Q9NZQ7 19-290); experiment: flow cytometry, CHO cells co-expressing human CD80 and PDL1 (cis interaction)
T1 construct: whole, on cells; Expressed alone (parental PDL1 clone) or with CD80 (cis-CD80:PDL1 clones)
T1 sequence (Q9NZQ7 19-290): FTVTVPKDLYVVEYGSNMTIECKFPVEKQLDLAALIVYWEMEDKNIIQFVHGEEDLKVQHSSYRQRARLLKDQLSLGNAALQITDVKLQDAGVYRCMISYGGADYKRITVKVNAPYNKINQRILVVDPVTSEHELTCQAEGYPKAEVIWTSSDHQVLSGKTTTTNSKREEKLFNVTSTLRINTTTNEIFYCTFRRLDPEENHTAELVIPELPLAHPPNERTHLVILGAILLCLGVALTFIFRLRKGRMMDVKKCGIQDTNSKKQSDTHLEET

[2] = biological target: B1; experiment: flow cytometry, anti-hIgG1 staining, cis-CD80:PDL1 CHO cells
Description: After washing to remove excess fusion protein and antibody, cell pellets were resuspended in 100 μL of FACS buffer (PBS with 10% FCS). Flow cytometry was performed on viable cells (based on SSC/FSC) using a BD LSRII or LSRFortessa (BD Biosciences), and cell sorting was performed using a BD Influx (BD Biosciences) with a 100 μm nozzle. […] All antibodies were used at a final dilution of 1:200 from stock.

binding result [1]	binding result [2]	Binder
binds	–	B1
–	binds	MonoCTLA4-Ig (Fc fusion, not shown: C-terminal FLAG tag) MHVAQPAVVLASSRGIASFVCEYASPGKATEVRVTVLRQADSQVTEVCAATYMMGNELTFLDDSICTGTSSGNQVNLTIQGLRAMDTGLYICKVELMYPPPYYLGIGNGTQIYVIAKEKKPSYNRGLCENAPNRARMQEPKSSDKTHTSPPSPAPELLGGSSVFLFPPKPKDTLMISRTPEVTCVVVDVSHEDPEVKFNWYVDGVEVHNAKTKPREEQYNSTYRVVSVLTVLHQDWLNGKEYKCKVSNKALPAPIEKTISKAKGQPREPQVYTLPPSRDELTKNQVNLTCLVKGFYPSDIAVEWESNGQPENNYKTTPPVLDSDGSFFLNSTLTVDKSRWQQGNVFSCSVMHEALHNHYTQKSLSLSPGK
